From patent US20240240209A1, “SYNTHESIS OF ENANTIOPURE CIS-A-IRONE FROM A RENEWABLE CARBON SOURCE” (Agency for Science, Technology and Research, priority 2021, published 2024)
Positions count from the first letter of the chain named. Names and notes keep the numbering of the source.

B1: pMT1_E153K: pMT1 with E153K (protein)
chain: MPQEARTPQQQVTADEVGDWYDKFGEVYHLTLGESVHCGLWFPPDAPVPQDMELVTMSSQAQDRYTDYLIETLDPKAGQHLLDIGCGTGRTALKAARQRGIAVTGVAVSKEQIAAANRLAAGHGLTERLTFEVADAMRLPYEDESFDCAWAIKSLCHMDRAKALGEAWRVLKPGGDLLVLESVVTEELTEPETALFETLYAANVPPRLGEFFDIVSGAGFHTLSLKDLSANLAMTMNVFALGVYSRRAEFTERFGAEFVDGLLAGLGSAQETLIRKTRFFMATLRKPAV
B2: pMT1_E153L: pMT1 with E153L (protein)
chain: B1 chain with K153L
B3: pMT1_E153M: pMT1 with E153M (protein)
chain: B1 chain with K153M
B4: pMT1_E153N: pMT1 with E153N (protein)
chain: B1 chain with K153N
B5: pMT1_E153P: pMT1 with E153P (protein)
chain: B1 chain with K153P
B6: pMT1_E153Q: pMT1 with E153Q (protein)
chain: B1 chain with K153Q
B7: pMT1_E153R: pMT1 with E153R (protein)
chain: B1 chain with K153R
B8: pMT1_E153S: pMT1 with E153S (protein)
chain: B1 chain with K153S
B9: pMT1_E153T: pMT1 with E153T (protein)
chain: B1 chain with K153T
B10: pMT1_E153V: pMT1 with E153V (protein)
chain: B1 chain with K153V
B11: pMT1_E153W: pMT1 with E153W (protein)
chain: B1 chain with K153W
B12: pMT1_M236K: pMT1 with M236K (protein)
chain: B1 chain with K153E, M236K
B13: pMT1_M236L: pMT1 with M236L (protein)
chain: B1 chain with K153E, M236L
B14: pMT1_M236N: pMT1 with M236N (protein)
chain: B1 chain with K153E, M236N
B15: pMT1_M236P: pMT1 with M236P (protein)
chain: B1 chain with K153E, M236P
B16: pMT1_M236Q: pMT1 with M236Q (protein)
chain: B1 chain with K153E, M236Q
B17: pMT1_M236R: pMT1 with M236R (protein)
chain: B1 chain with K153E, M236R
B18: pMT1_M236S: pMT1 with M236S (protein)
chain: B1 chain with K153E, M236S
B19: pMT1_M236T: pMT1 with M236T (protein)
chain: B1 chain with K153E, M236T
B20: pMT1_M236V (protein)
chain: B1 chain with K153E, M236V
B21: pMT1_M236W: pMT1 with M236W (protein)
chain: B1 chain with K153E, M236W
B22: pMT1_M236Y: pMT1 with M236Y (protein)
chain: B1 chain with K153E, M236Y
B23: pMT1_R160K: pMT1 with R160K (protein)
chain: B1 chain with K153E, R160K
B24: pMT1_R160L (protein)
chain: B1 chain with K153E, R160L
B25: pMT1_R160M: pMT1 with R160M (protein)
chain: B1 chain with K153E, R160M
B26: pMT1_R160N (protein)
chain: B1 chain with K153E, R160N
B27: pMT1_R160P: pMT1 with R160P (protein)
chain: B1 chain with K153E, R160P
B28: pMT1_R160Q: pMT1 with R160Q (protein)
chain: B1 chain with K153E, R160Q
B29: pMT1_R160S: pMT1 with R160S (protein)
chain: B1 chain with K153E, R160S
B30: pMT1_R160T: pMT1 with R160T (protein)
chain: B1 chain with K153E, R160T
B31: pMT1_R160V: pMT1 with R160V (protein)
chain: B1 chain with K153E, R160V
B32: pMT1_R160W: pMT1 with R160W (protein)
chain: B1 chain with K153E, R160W
B33: pMT1_R160Y (protein)
chain: B1 chain with K153E, R160Y
B34: pMT1_S182T: pMT1 with S182T (protein)
chain: B1 chain with K153E, S182T
B35: pMT1_Y200K: pMT1 with Y200K (protein)
chain: B1 chain with K153E, Y200K
B36: pMT1_Y200M: pMT1 with Y200M (protein)
chain: B1 chain with K153E, Y200M
B37: pMT1_Y200N (protein)
chain: B1 chain with K153E, Y200N
B38: pMT1_Y200P: pMT1 with Y200P (protein)
chain: B1 chain with K153E, Y200P
B39: pMT1_Y200Q: pMT1 with Y200Q (protein)
chain: B1 chain with K153E, Y200Q
B40: pMT1_Y200R (protein)
chain: B1 chain with K153E, Y200R
B41: pMT1_Y200S: pMT1 with Y200S (protein)
chain: B1 chain with K153E, Y200S
B42: pMT1_Y200T: pMT1 with Y200T (protein)
chain: B1 chain with K153E, Y200T
B43: pMT1_Y200V: pMT1 with Y200V (protein)
chain: B1 chain with K153E, Y200V
B44: pMT1_Y200W: pMT1 with Y200W (protein)
chain: B1 chain with K153E, Y200W

Assay: Cell lysate reaction of pMT enzymes with psi-ionone, irones quantified by HS-SPME-GCMS
Type: biochemical
Conditions: pMT1_E153 mutants; AUC vs non-mutated (=1)
Method in brief: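 pMT1 site-saturation mutants were expressed in E. coli BL21(DE3) and lysed, and lysates were incubated 2 days at 28 °C with 0.2 mM SAM and 10 mg/L psi-ionone (plus caryophyllene) in 50 mM Tris pH 7, 10 mM MgCl2. Cis-α-irone was measured by HS-SPME-GCMS peak area and given as fold change over non-mutated enzyme.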

Molecule | fold change in cis-α-irone produced
B1 | 0.0
B2 | 0.0
B3 | 0.0
B4 | 0.0
B5 | 0.0
B6 | 0.0
B7 | 0.0
B8 | 0.0
B9 | 0.0
B10 | 0.0
B11 | 0.0

Same assay, conditions: pMT1_M236 mutants; AUC vs non-mutated (=1)

Molecule | fold change in cis-α-irone produced
B12 | 0.0
B13 | 1.1
B14 | 3.9
B15 | 0.0
B16 | 0.0
B17 | 0.0
B18 | 0.7
B19 | 1.7
B20 | 0.7
B21 | 0.2
B22 | 0.0

Same assay, conditions: pMT1_R160 mutants; AUC vs non-mutated (=1)

Molecule | fold change in cis-α-irone produced
B23 | 0.0
B24 | 0.9
B25 | 0.9
B26 | 0.8
B27 | 0.6
B28 | 1.3
B29 | 0.0
B30 | 1.2
B31 | 1.5
B32 | 0.7
B33 | 1.3

Same assay, conditions: pMT1_S182 mutants; AUC vs non-mutated (=1)

Molecule | fold change in cis-α-irone produced
B34 | 0.23

Same assay, conditions: pMT1_Y200 mutants; AUC vs non-mutated (=1)

Molecule | fold change in cis-α-irone produced
B35 | 0.0
B36 | 0.4
B37 | 0.0
B38 | 0.0
B39 | 0.1
B40 | 0.0
B41 | 0.2
B42 | 0.0
B43 | 1.1
B44 | 2.1
